Source: article PMC7201923

Target: KPNA2 (UniProt P52292)
Assay: anti-FLAG co-IP, immunoblot
Conditions: sites S97

binding against the reference: stronger
Substance: IRF3 (from UniProt Q14653)
